Assay results: patent US20240270846A1 (published 2024)
Positions count from the first letter of the chain named. Names and notes keep the numbering of the source. Blank lines part the entries; values can stand above or below the binder they belong to.

Columns and labels:
[1] = target: T1, CD3 epsilon homodimer protein (UniProt P07766 23-126); experiment: SPR Biacore T200, CD3 epsilon homodimer on chip, antibody as analyte;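 further: homodimer amine-coupled to a CM4 sensor chip, run at 25 °C in HBS-EP+ buffer, with kinetic parameters derived in Biacore T200 Evaluation Software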
T1 construct: also called CD3 (CD3 epsilon)
T1 sequence (P07766 23-126): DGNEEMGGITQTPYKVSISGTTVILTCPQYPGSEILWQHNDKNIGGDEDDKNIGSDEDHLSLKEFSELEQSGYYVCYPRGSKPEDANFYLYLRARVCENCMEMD

[2] = target: T2, CD3 epsilon homodimer protein (UniProt P07766 23-126); experiment: SPR, CD3e homodimer on chip;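 further: surface plasmon resonance at 25 degrees C, antibodies flowed as analyte over CD3 epsilon homodimer amine-coupled to a CM4 chip, running buffer HBS-EP+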
T2 construct: also called CD3 (CD3 epsilon)
T2 sequence (P07766 23-126): as above

KD ratio (KD of CE115HA000 / KD of altered form) [1]: 25
B1: CE115HA000 H chain altered form H35A (antibody, human IgG1, kappa, L234A L235A, N297A, name in Kabat numbering)
heavy: QVQLVESGGGVVQPGRSLRLSCAASGFTFSNAWMAWVRQAPGKGLEWVAQIKAKSNNYATYYAESVKGRFTISRDDSKNSLYLQMNSLKTEDTAVYYCRYVHYGAYYGVDAWGQGTTVTVSSASTKGPSVFPLAPSSKSTSGGTAALGCLVKDYFPEPVTVSWNSGALTSGVHTFPAVLQSSGLYSLSSVVTVPSSSLGTQTYICNVNHKPSNTKVDKKVEPKSCDKTHTCPPCPAPEAAGGPSVFLFPPKPKDTLMISRTPEVTCVVVDVSHEDPEVKFNWYVDGVEVHNAKTKPREEQYASTYRVVSVLTVLHQDWLNGKEYKCKVSNKALPAPIEKTISKAKGQPREPQVYTLPPSRCELTKNQVSLSCAVKGFYPSDIAVEWESNGQPENNYKTTPPVLDSDGSFFLVSKLTVDKSRWQQGNVFSCSVMHEALHNHYTQKSLSLSPDYKDDDDK
chain: EPKSSDKTHTCPPCPAPELLGGPSVFLFPPKPKDTLMISRTPEVTCVVVDVSHEDPEVKFNWYVDGVEVHNAKTKPREEQYNSTYRVVSVLTVLHQDWLNGKEYKCKVSNKALPAPIEKTISKAKGQPREPQVCTLPPSRDELTKNQVSLWCLVKGFYPSDIAVEWESNGQPENNYKTTPPVLDSDGSFFLYSKLTVDKSRWQQGNVFSCSVMHEALHNRYTQKSLSLSP
light: DIVMTQSPLSLPVTPGEPASISCRSSQSLVHSNRNTYLHWYQQKPGQAPRLLIYKVSNRFSGVPDRFSGSGSGTDFTLKISRVEAEDVGVYYCGQGTQVPYTFGQGTKLEIKRTVAAPSVFIFPPSDEQLKSGTASVVCLLNNFYPREAKVQWKVDNALQSGNSQESVTEQDSKDSTYSLSSTLTLSKADYEKHKVYACEVTHQGLSSPVTKSFNRGEC
notes: one-arm antibody

ratio of amounts bound (altered form / unaltered GLS3000 antibody) [2]: 1.59
B2: GLS3000 S27eK one-arm antibody (H chain CE115HA000) (antibody, human IgG1, kappa, L234A L235A, N297A, name in Kabat numbering)
heavy: B1 heavy with A35H
chain: B1 chain
light: B1 light with S32K
notes: one-arm antibody

ratio of amounts bound (altered form / unaltered GLS3000 antibody) [2]: 0.3
B3: GLS3000 V27cP one-arm antibody (H chain CE115HA000) (antibody, human IgG1, kappa, L234A L235A, N297A, name in Kabat numbering)
heavy: B1 heavy with A35H
chain: B1 chain
light: B1 light with V30P
notes: one-arm antibody

ratio of amounts bound (altered form / unaltered GLS3000 antibody) [2]: 1.23
B4: GLS3000 S27eH one-arm antibody (H chain CE115HA000) (antibody, human IgG1, kappa, L234A L235A, N297A, name in Kabat numbering)
heavy: B1 heavy with A35H
chain: B1 chain
light: B1 light with S32H
notes: one-arm antibody

ratio of amounts bound (altered form / unaltered GLS3000 antibody) [2]: 1.16
B5: GLS3000 S27eN one-arm antibody (H chain CE115HA000) (antibody, human IgG1, kappa, L234A L235A, N297A, name in Kabat numbering)
heavy: B1 heavy with A35H
chain: B1 chain
light: B1 light with S32N
notes: one-arm antibody

ratio of amounts bound (altered form / unaltered GLS3000 antibody) [2]: 0.96
B6: GLS3000 V27cI one-arm antibody (H chain CE115HA000) (antibody, human IgG1, kappa, L234A L235A, N297A, name in Kabat numbering)
heavy: B1 heavy with A35H
chain: B1 chain
light: B1 light with V30I
notes: one-arm antibody

ratio of amounts bound (altered form / unaltered GLS3000 antibody) [2]: 0.77
B7: GLS3000 V27cY one-arm antibody (H chain CE115HA000) (antibody, human IgG1, kappa, L234A L235A, N297A, name in Kabat numbering)
heavy: B1 heavy with A35H
chain: B1 chain
light: B1 light with V30Y
notes: one-arm antibody

ratio of amounts bound (altered form / unaltered GLS3000 antibody) [2]: 1.58
B8: GLS3000 S27eR one-arm antibody (H chain CE115HA000) (antibody, human IgG1, kappa, L234A L235A, N297A, name in Kabat numbering)
heavy: B1 heavy with A35H
chain: B1 chain
light: B1 light with S32R
notes: one-arm antibody

ratio of amounts bound (altered form / unaltered GLS3000 antibody) [2]: 1.26
B9: GLS3000 S27eP one-arm antibody (H chain CE115HA000) (antibody, human IgG1, kappa, L234A L235A, N297A, name in Kabat numbering)
heavy: B1 heavy with A35H
chain: B1 chain
light: B1 light with S32P
notes: one-arm antibody

KD ratio (KD of CE115HA000 / KD of altered form) [1]: 2.11
B10: CE115HA000 H chain altered form A32Y (antibody, human IgG1, kappa, L234A L235A, N297A, name in Kabat numbering)
heavy: B1 heavy with A32Y, A35H
chain: B1 chain
light: B1 light
notes: one-arm antibody

ratio of amounts bound (altered form / unaltered GLS3000 antibody) [2]: 0.24
B11: GLS3000 Y32A one-arm antibody (H chain CE115HA000) (antibody, human IgG1, kappa, L234A L235A, N297A, name in Kabat numbering)
heavy: B1 heavy with A35H
chain: B1 chain
light: B1 light with Y37A
notes: one-arm antibody

ratio of amounts bound (altered form / unaltered GLS3000 antibody) [2]: 1.07
B12: GLS3000 S27eI one-arm antibody (H chain CE115HA000) (antibody, human IgG1, kappa, L234A L235A, N297A, name in Kabat numbering)
heavy: B1 heavy with A35H
chain: B1 chain
light: B1 light with S32I
notes: one-arm antibody

ratio of amounts bound (altered form / unaltered GLS3000 antibody) [2]: 1.55
B13: GLS3000 S27eW one-arm antibody (H chain CE115HA000) (antibody, human IgG1, kappa, L234A L235A, N297A, name in Kabat numbering)
heavy: B1 heavy with A35H
chain: B1 chain
light: B1 light with S32W
notes: one-arm antibody

ratio of amounts bound (altered form / unaltered GLS3000 antibody) [2]: 0.63
B14: GLS3000 S52D one-arm antibody (H chain CE115HA000) (antibody, human IgG1, kappa, L234A L235A, N297A, name in Kabat numbering)
heavy: B1 heavy with A35H
chain: B1 chain
light: B1 light with S57D
notes: one-arm antibody

ratio of amounts bound (altered form / unaltered GLS3000 antibody) [2]: 0.32
B15: GLS3000 V27cD one-arm antibody (H chain CE115HA000) (antibody, human IgG1, kappa, L234A L235A, N297A, name in Kabat numbering)
heavy: B1 heavy with A35H
chain: B1 chain
light: B1 light with V30D
notes: one-arm antibody

ratio of amounts bound (altered form / unaltered GLS3000 antibody) [2]: 1.08
B16: GLS3000 S27eV one-arm antibody (H chain CE115HA000) (antibody, human IgG1, kappa, L234A L235A, N297A, name in Kabat numbering)
heavy: B1 heavy with A35H
chain: B1 chain
light: B1 light with S32V
notes: one-arm antibody

ratio of amounts bound (altered form / unaltered GLS3000 antibody) [2]: 1.17
B17: GLS3000 S27eL one-arm antibody (H chain CE115HA000) (antibody, human IgG1, kappa, L234A L235A, N297A, name in Kabat numbering)
heavy: B1 heavy with A35H
chain: B1 chain
light: B1 light with S32L
notes: one-arm antibody

ratio of amounts bound (altered form / unaltered GLS3000 antibody) [2]: 0.84
B18: GLS3000 V27cL one-arm antibody (H chain CE115HA000) (antibody, human IgG1, kappa, L234A L235A, N297A, name in Kabat numbering)
heavy: B1 heavy with A35H
chain: B1 chain
light: B1 light with V30L
notes: one-arm antibody

ratio of amounts bound (altered form / unaltered GLS3000 antibody) [2]: 1.2
B19: GLS3000 S27eY one-arm antibody (H chain CE115HA000) (antibody, human IgG1, kappa, L234A L235A, N297A, name in Kabat numbering)
heavy: B1 heavy with A35H
chain: B1 chain
light: B1 light with S32Y
notes: one-arm antibody

ratio of amounts bound (altered form / unaltered GLS3000 antibody) [2]: 0.23
B20: GLS3000 T31D one-arm antibody (H chain CE115HA000) (antibody, human IgG1, kappa, L234A L235A, N297A, name in Kabat numbering)
heavy: B1 heavy with A35H
chain: B1 chain
light: B1 light with T36D
notes: one-arm antibody

ratio of amounts bound (altered form / unaltered GLS3000 antibody) [2]: 0.51
B21: GLS3000 V27cS one-arm antibody (H chain CE115HA000) (antibody, human IgG1, kappa, L234A L235A, N297A, name in Kabat numbering)
heavy: B1 heavy with A35H
chain: B1 chain
light: B1 light with V30S
notes: one-arm antibody

ratio of amounts bound (altered form / unaltered GLS3000 antibody) [2]: 0.97
B22: GLS3000 S27eT one-arm antibody (H chain CE115HA000) (antibody, human IgG1, kappa, L234A L235A, N297A, name in Kabat numbering)
heavy: B1 heavy with A35H
chain: B1 chain
light: B1 light with S32T
notes: one-arm antibody

ratio of amounts bound (altered form / unaltered GLS3000 antibody) [2]: 1.16
B23: GLS3000 S56A one-arm antibody (H chain CE115HA000) (antibody, human IgG1, kappa, L234A L235A, N297A, name in Kabat numbering)
heavy: B1 heavy with A35H
chain: B1 chain
light: B1 light with S61A
notes: one-arm antibody

ratio of amounts bound (altered form / unaltered GLS3000 antibody) [2]: 0.33
B24: GLS3000 V51D one-arm antibody (H chain CE115HA000) (antibody, human IgG1, kappa, L234A L235A, N297A, name in Kabat numbering)
heavy: B1 heavy with A35H
chain: B1 chain
light: B1 light with V56D
notes: one-arm antibody

ratio of amounts bound (altered form / unaltered GLS3000 antibody) [2]: 1.04
B25: GLS3000 S27eG one-arm antibody (H chain CE115HA000) (antibody, human IgG1, kappa, L234A L235A, N297A, name in Kabat numbering)
heavy: B1 heavy with A35H
chain: B1 chain
light: B1 light with S32G
notes: one-arm antibody

KD ratio (KD of CE115HA000 / KD of altered form) [1]: 1.35
B26: CE115HA000 H chain altered form A52aD (antibody, human IgG1, kappa, L234A L235A, N297A, name in Kabat numbering)
heavy: B1 heavy with A35H, A53D
chain: B1 chain
light: B1 light
notes: one-arm antibody

ratio of amounts bound (altered form / unaltered GLS3000 antibody) [2]: 0.93
B27: GLS3000 S52A one-arm antibody (H chain CE115HA000) (antibody, human IgG1, kappa, L234A L235A, N297A, name in Kabat numbering)
heavy: B1 heavy with A35H
chain: B1 chain
light: B1 light with S57A
notes: one-arm antibody

ratio of amounts bound (altered form / unaltered GLS3000 antibody) [2]: 0.61
B28: GLS3000 V27cE one-arm antibody (H chain CE115HA000) (antibody, human IgG1, kappa, L234A L235A, N297A, name in Kabat numbering)
heavy: B1 heavy with A35H
chain: B1 chain
light: B1 light with V30E
notes: one-arm antibody

ratio of amounts bound (altered form / unaltered GLS3000 antibody) [2]: 1.1
B29: GLS3000 S27eQ one-arm antibody (H chain CE115HA000) (antibody, human IgG1, kappa, L234A L235A, N297A, name in Kabat numbering)
heavy: B1 heavy with A35H
chain: B1 chain
light: B1 light with S32Q
notes: one-arm antibody

ratio of amounts bound (altered form / unaltered GLS3000 antibody) [2]: 0.23
B30: GLS3000 Y32D one-arm antibody (H chain CE115HA000) (antibody, human IgG1, kappa, L234A L235A, N297A, name in Kabat numbering)
heavy: B1 heavy with A35H
chain: B1 chain
light: B1 light with Y37D
notes: one-arm antibody

ratio of amounts bound (altered form / unaltered GLS3000 antibody) [2]: 0.77
B31: GLS3000 S56D one-arm antibody (H chain CE115HA000) (antibody, human IgG1, kappa, L234A L235A, N297A, name in Kabat numbering)
heavy: B1 heavy with A35H
chain: B1 chain
light: B1 light with S61D
notes: one-arm antibody

ratio of amounts bound (altered form / unaltered GLS3000 antibody) [2]: 1.23
B32: GLS3000 S27eM one-arm antibody (H chain CE115HA000) (antibody, human IgG1, kappa, L234A L235A, N297A, name in Kabat numbering)
heavy: B1 heavy with A35H
chain: B1 chain
light: B1 light with S32M
notes: one-arm antibody
